Measurements as given in patent publication EP4582453A1 (Cichlid Inc., dated 2025).

B1: 4B6 scFv (scFv, V domains shown)
VH: EVQLLESGGGLVQPGGSLRLSCAASGFTFSGYSMSWVRQAPGKGLEWVSSISPSGGNTYYADSVKGRFTISRDNSKNTLYLQMNSLRAEDTAVYYCAKTSELFDYWGQGTLVTVSS
VL: QSVLTQPPSASGTPGQRVTISCTGSSSNIGSNDVNWYQQLPGTAPKLLIYNDSHRPSGVPDRFSGSKSGTSASLAISGLRSEDEADYYCGTWDYSLSAYVFGGGTKLTV
notes: HA-tagged scFv
B2: 3E4 scFv (scFv, V domains shown)
VH: EVQLLESGGGLVQPGGSLRLSCAASGFTFSNYAMSWVRQAPGKGLEWVSVIYYDGSNKYYADSVKGRFTISRDNSKNTLYLQMNSLRAEDTAVYYCARNTYRFDYWGQGTLVTVSS
VL: QSVLTQPPSASGTPGQRVTISCSGSSSNIGNNAVTWYQQLPGTAPKLLIYSDSNRPSGVPDRFSGSKSGTSASLAISGLRSEDEADYYCGSWDSSLSGYVFGGGTKLTVL
notes: HA-tagged scFv from a synthetic human scFv phage library, tested as an E. coli extract; VH and VL form one chain in the scFv

Target: T1, human CTLA-4 protein overexpressed in the HEK293 cell line (human, UniProt P16410 36-223)
T1 construct: whole, on cells; also called CTLA-4/HEK293 cell line; CTLA-4 expressing cell line
T1 sequence (looked up): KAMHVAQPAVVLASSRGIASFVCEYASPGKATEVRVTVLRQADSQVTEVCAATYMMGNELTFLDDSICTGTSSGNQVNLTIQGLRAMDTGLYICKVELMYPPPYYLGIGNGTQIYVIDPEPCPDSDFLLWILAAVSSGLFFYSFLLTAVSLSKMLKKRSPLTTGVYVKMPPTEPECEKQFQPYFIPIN
Assay: cell ELISA of HA-tagged scFv extract on CTLA-4-expressing HEK293 cells, anti-HA HRP

Binder | binding result
B1 | binds
B2 | binds
